The source of these data is patent US20210261685A1.

This assay concerns the target human MerTK endogenously expressed on cells (SK-MEL-5 cells; human macrophages) (human) (UniProt Q12866). Kind of assay: cell-based or functional assay.

Chain of human MerTK endogenously expressed on cells (SK-MEL-5 cells; human macrophages) (human) (Q12866 21-999 limits assumed): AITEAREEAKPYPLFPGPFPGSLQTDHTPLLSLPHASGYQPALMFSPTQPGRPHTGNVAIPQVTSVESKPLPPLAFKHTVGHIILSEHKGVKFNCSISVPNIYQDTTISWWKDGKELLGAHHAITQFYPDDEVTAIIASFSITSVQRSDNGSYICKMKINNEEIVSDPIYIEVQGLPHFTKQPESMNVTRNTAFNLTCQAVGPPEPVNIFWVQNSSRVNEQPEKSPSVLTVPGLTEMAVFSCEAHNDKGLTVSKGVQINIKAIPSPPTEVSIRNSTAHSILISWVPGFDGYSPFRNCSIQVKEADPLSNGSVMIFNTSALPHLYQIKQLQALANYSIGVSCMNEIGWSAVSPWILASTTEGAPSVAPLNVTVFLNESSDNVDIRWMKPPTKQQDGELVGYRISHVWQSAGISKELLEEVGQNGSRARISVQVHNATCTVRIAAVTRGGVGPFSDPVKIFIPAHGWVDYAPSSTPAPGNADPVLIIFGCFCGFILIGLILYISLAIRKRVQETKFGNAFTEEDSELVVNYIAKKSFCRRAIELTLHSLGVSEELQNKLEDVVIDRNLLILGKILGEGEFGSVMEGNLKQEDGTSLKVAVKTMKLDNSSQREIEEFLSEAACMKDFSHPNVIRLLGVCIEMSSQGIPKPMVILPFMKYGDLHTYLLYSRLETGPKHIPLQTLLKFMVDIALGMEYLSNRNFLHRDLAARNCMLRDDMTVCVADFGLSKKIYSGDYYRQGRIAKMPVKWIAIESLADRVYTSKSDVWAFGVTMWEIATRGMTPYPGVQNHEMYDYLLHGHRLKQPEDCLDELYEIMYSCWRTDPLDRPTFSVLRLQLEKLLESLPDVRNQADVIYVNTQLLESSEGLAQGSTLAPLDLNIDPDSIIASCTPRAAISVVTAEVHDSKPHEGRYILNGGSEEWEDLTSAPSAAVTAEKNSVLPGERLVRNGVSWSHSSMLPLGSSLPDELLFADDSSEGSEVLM

B1: MTK-22 (antibody, human IgG1, V domains shown)
VH: QVQLQQPGADLVEPGASVKLSCKASGYTFTSYWMHWVKQRPGQGLEWIGEIDPSDSSSNYNQKFKGKATLTVDKSSSTAYMHLNSLTSEDSAVYYCARRYYYGSLYFDNWGQGTTLTVSS
VL: DVVMTQSHKFMSTSVGDRVSITCKASQDVGTAIAWYQQKPGQSPKLLIYWASTRHTGVPDRFTGSRSGTVFTLTISNVQSEDLADYFCQQYTSYPLTFGSGTKLEIK
Molecule B1 registered a Gas6-mediated pAKT activity, average IC50, human M2c macrophages of 0.531 nM.
